Measurements: patent US20260327578A1, “TRANSGLUTAMINASES AND USES THEREOF” (CURIE CO. INC., priority 2023, published 2026)

Assays:
[1] = system: E. coli (ATCC 8739); assay: MIC determination against E. coli; assay type: cell-based
Protocol: (§1) E. coli (ATCC 8739) and C. albicans (ATCC 10231) were acquired from the American Type Culture Collection (ATCC) (Manassas, VA) and maintained as −80° C. frozen glycerol stocks.
The following day, the cell density of the saturated cultures was calculated using OD600 and cultures were diluted to 104 to 10^6 CFU/mL in sterile Mueller Hinton broth to generate the inoculum, and 100 μL of the inoculum was combined with 100 μL of serially diluted Tgase variant A3 (SEQ ID NO: 4) at a range of 0.0001-0.05 weight percent. Growth curves were measured by OD600 on a BioTek® Synergy Plate Reader. All test conditions were performed in triplicate. MIC was determined to be […] (0.005% w/v) against E. coli for the enzyme described in SEQ ID NO: 4 using OD600.

[2] = Thermal stability at 55 °C, specific activity by colorimetric hydroxamate assay; assay type: biochemical
Protocol: Tgase activity was measured herein using a colorimetric hydroxamate activity assay (Folk and Cole (1965) J Biol Chemistry 240 (7): 2951-2960). Briefly, the hydroxamate assay uses N-benzyloxycarbonyl-L-glutaminyl-glycine (ZQG) as a low molecular weight amine acceptor substrate and hydroxylamine as an amine donor. In the presence of catalytically active Tgase, the hydroxylamine is incorporated to form Z-glutamylhydroxamate-glycine, which develops a colored complex with iron (III), detectable at 525 nm after incubation at 37° C. for 5-200 minutes. The calibration was performed using L-glutamic acid gamma-monohydroxamate (Millipore® Sigma®) as a standard. One unit of Tgase was defined as the amount of enzyme that catalyzes formation of 1 μmol of the peptide derivative of gamma-glutamylhydroxylamine per minute. Activity of Tgase variants is depicted in Tables 2-4.
A commercially available wild-type Tgase (Ajinimoto®, Activa® TI formulation) formulated at 0.75-1.0% enzyme in maltodextrin was purchased from Amazon.com and dissolved in water at 20% w/v. The concentration of the mature Tgase in the solution was confirmed by high-performance liquid chromatography (HPLC) and the sample was further diluted to 0.1 g/L of enzyme. Following dilution, the enzyme was subjected to the hydroxamate assay as described in Example 4 to determine specific activity. The specific activity of the commercial wild-type Tgase compared to Tgase variant A3 (SEQ ID NO: 4), further comprising an N-terminal methionine, is shown in FIG. 1.
The thermal stability of Tgase variant A3 (SEQ ID NO: 4) compared to the commercial wild-type Tgase was evaluated by incubating the samples at 55° C. and testing the enzyme concentration and activity at various timepoints. Six timepoints were tested: 0, 30, 60, 120, 240, and 480 minutes.
The enzyme concentration was measured by HPLC. The samples were diluted 10-fold in 50 mM phosphate pH 7.4, 100 mM NaCl. The samples were tested by reverse phase using a Zorbax SB300-C8 column with 0.1% trifluoroacetic acid in water (MPA) and 0.08% trifluoroacetic acid in acetonitrile (MPB).
The activity was determined using the colorimetric activity assay described in Example 4A. The specific activity (U/mg) of the samples was calculated using the concentration of each sample as determined per Example 4D (results shown in Table 10).

[3] = system: C. albicans (ATCC 10231); assay: MIC determination against C. albicans; assay type: cell-based
Protocol: as §1
For MIC determination of yeast cultures, C. albicans (ATCC 10231) was grown overnight (24 hours) in Sabouraud Dextrose broth at 30° C. The following day, the cell density of the saturated cultures was calculated using OD600 and cultures were diluted to 104 to 10^6 CFU/mL in sterile Sabouraud Dextrose broth media to generate the inoculum, and 100 μL of the inoculum was combined with 100 μL of serially diluted Tgase variant at a range of 0.0001-0.05 weight percent. The cultures were grown overnight at 30° C. and growth curves were measured by OD600 on a BioTek® Synergy Plate Reader. All test conditions were performed in triplicate. MIC was determined to be […] (0.005% w/v) against C. albicans for the enzyme described in SEQ ID NO: 4 using OD600.

[4] = OD600, printed in brackets after the ppm value

B1: A3: Tgase variant S2P Q50S Q74A K91H Q124L K151R K152R N282M G283A relative to SEQ ID NO: 2 (protein, UniProt P81453 77-407, looked up, variant S2P Q50S Q74A K91H Q124L K151R K152R N282M G283A)
Protein-glutamine …: DPDDRVTPPAEPLDRMPDPYRPSYGRAETVVNNYIRKWQQVYSHRDGRKSQMTEEQREWLSYGCVGVTWVNSGAYPTNRLAFASFDEDRFHNELKNGRPRSGETRAEFEGRVAKESFDEEKGFLRAREVASVMNRALENAHDESAYLDNLRRELANGNDALRNEDARSPFYSALRNTPSFKERNGGNHDPSRMKAVIYSKHFWSGQDRSSSADKRKYGDPDAFRPAPGTGLVDMSRDRNIPRSPTSPGEGFVNFDYGWFGAQTEADADKTVWTHGNHYHAPMASLGAMHVYESKFRNWSEGYSDFDRGAYVITFIPKSWNTAPDKVKQGWP
For B1, the MIC ([1]; OD600) was 200 ppm, the MIC [1, 4] was 0.005 % w/v and the Specific activity ([2]; timepoint 0 min) was 46.0 U/mg. It also gave a Specific activity ([2]; timepoint 30 min) of 44.4 U/mg, a Specific activity ([2]; timepoint 60 min) of 43.3 U/mg and a Specific activity ([2]; timepoint 120 min) of 40.5 U/mg. For the same molecule, the Specific activity ([2]; timepoint 240 min) was 38.9 U/mg, the Specific activity ([2]; timepoint 480 min) was 32.1 U/mg and the “portion remaining soluble during the heat treatment” value ([2]; up to 480 min, compared to wild-type Tgase, HPLC) was “greater portion”. For the same molecule, the MIC ([3]; OD600) was 100 ppm and the MIC [3, 4] was 0.005 % w/v.
